Nine molecules from patent publication US20250011438A1 (INSTITUTE FOR BASIC SCIENCE, published 2025) can be followed below.

The target of test [1] is T1, human Tie2 (hTie2), as immobilised in the Octet assay of Example 1.4 (human, UniProt Q02763 349-738, limits assumed).
T1 construct: The protein used was probably a soluble recombinant form, possibly hTie2-Ig3-FNIII(1-3)
Description: BLI (Octet), hTie2 immobilised on AR2G sensor, antibody as analyte, 1:1 global fit. How it is done:
The affinity of mouse monoclonal antibody against hTie2 was measured using Octet® system (ForteBio) where Black 96-well plates (96 well F-type black plates, Greiner) were used. […] After the hydration, hTie2 was diluted in 10 mM sodium acetate, pH 6.0 buffer at a concentration of 10 μg/ml, fixed on AR2G biosensor, and blocked with 1M ethanolamine. The mouse monoclonal anti-Tie2 antibodies were diluted to 50, 25, 12.5, 6.25, 3.125, and 0 nM with 1× kinetic buffer, and subjected to association for 300 seconds and dissociation for 900 seconds.
A general note: In BLI a coated tip is dipped into the sample, and binding shifts an interference pattern.

In test [2] the target is T2, recombinant human Tie2 Ig3-FNIII(1-3) domains (human, UniProt Q02763 349-738).
T2 construct: also called hTie2-Ig3-FNIII(1-3)
T2 sequence (Q02763 349-738 limits assumed): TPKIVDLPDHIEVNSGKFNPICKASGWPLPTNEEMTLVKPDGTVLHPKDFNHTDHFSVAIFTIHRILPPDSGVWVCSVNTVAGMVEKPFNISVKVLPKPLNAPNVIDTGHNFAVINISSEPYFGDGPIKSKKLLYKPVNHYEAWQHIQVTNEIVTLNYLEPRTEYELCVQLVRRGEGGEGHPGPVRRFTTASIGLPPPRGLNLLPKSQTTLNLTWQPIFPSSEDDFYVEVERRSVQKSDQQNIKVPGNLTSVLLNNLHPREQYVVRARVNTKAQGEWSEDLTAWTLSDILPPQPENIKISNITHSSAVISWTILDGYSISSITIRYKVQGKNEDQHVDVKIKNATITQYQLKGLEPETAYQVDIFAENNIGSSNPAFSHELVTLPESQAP
Description: stated in the HDX-MS sample preparation; how it was measured is not given; HDX-MS sample preparation; hTie2-Ig3-FNIII(1-3) fragment in deuterium labeling buffer; assay not given.

Test [3] has as its target T2, recombinant human Tie2 Ig3-FNIII(1-3) …. Nature of the test: BLI (Octet), antibody immobilised on AR2G sensor, recombinant hTie2 as analyte, 1:1 global fit. On the procedure: The affinity of humanized anti-Tie2 antibody against hTie2 was measured using Octet® system (ForteBio) where Black 96-well plates (96 well F-type black plates, Greiner) were used. […] After the hydration, humanized anti-Tie2 antibody was diluted in 10 mM sodium acetate, pH 6.0 buffer at a concentration of 10 μg/ml, fixed on AR2G biosensor, and blocked with 1M ethanolamine. The recombinant hTie2 was diluted to 50, 25, 12.5, 6.25, 3.125, and 0 nM with 1× kinetic buffer, and subjected to association for 300 sec and dissociation for 900 sec.

What is called Kd is the free concentration of one partner at which half of the binding sites on the other are occupied at equilibrium, for simple one-to-one binding. Broadly, the koff is the rate constant with which the complex falls apart. Broadly, the kon is the rate constant with which the complex forms.

T1 sequence (Q02763 349-738 limits assumed): as above

B1: mouse anti-Tie2 antibody 11C4 (antibody, V domains shown)
VH: QVQLQQPGADLVRPGASVTLSCKASGYSFTSYWMNWVKQRPGQGLEWIGMIHPSDSETRLNQKFKDKATLTVDKSSSTAYMQLRSPTSEDSAVYYCAGLTIYFDYWGQGTTLTVSS
VL: DIQMTQSPSSLSASLGERVSLTCRASQDIGISLNWLQQEPDGTIKRLIYATSSLDSGVPKRFSGSRSGSDYSLTISSLESEDFVDYYCLQYASSPYTFGGGTKLEIK
Regarding B1, in test [1], the Kd is 215 pM, the koff was 0.000327 s⁻¹ and the kon turned out to be 1.52e+06 M⁻¹ s⁻¹.

B2: mouse anti-Tie2 antibody 4A4 (antibody, V domains shown)
VH: QVQLQQPGAELVRPGASVKLSCKASGYSFTSYWMNWVKQRPGQGLEWIGMIHPSDSETRLNQKFKDKATLTVDKSSSTAYMQLSSPTSEDSAVYYCARGYYFDYWGQGTTLTVSS
VL: DIQMTQSPSSLSASLGERVSLTCRASQDIGISLNWLQQEPDGTIKRLIYATSSLDSGVPKRFTGSRSGSDYSLTISSLESEDFVDYYCLQYVSSPWTFGGGTKLEIK
In test [1], B2 had a Kd of 105 pM, a koff of 5.53e-05 s⁻¹ and a kon of 525000 M⁻¹ s⁻¹.

B3: mouse anti-Tie2 antibody 3E12 (antibody, V domains shown)
VH: QVQLQQPGADLVRPGASVKLSCKASGYSFTSYWMNWVKQRPGQGLEWIGMIHPSDSETRLNQKFKDKATLTVDKSSSTAYMQLSSPTSEDSAVYYCAKGYYFGYWGQGTTLTVSS
VL: DIQMTQSPSSLSASLGERVSLTCRASQDIGISLNWLQQEPDGTIKRLIYATSNLDSGVPKRFSGSRSGSDYSLTISSLESEDFVDYYCLQYASSPPTFGGGTKLEIK
In test [1], B3 registered a Kd of 251 pM, a koff of 9.12e-05 s⁻¹ and a kon of 363000 M⁻¹ s⁻¹.

B4: mouse anti-Tie2 antibody 3H7 (antibody, V domains shown)
VH: QVQLQQPGAELVRPGASVKLSCKASGYSFTSYWMNWVKQRPGQGLEWIGMIHPSDSETRLNQKFMDKATLTVDKSSSTAYMQLSSPTSEDSAVYYCARGLYGNSWGQGTLVTVSA
VL: DIQMTQSPSSLSASLGERVSLTCRASQDIGISLNWLQQEPDGTIKRLIYATSSLDSGVPKRFSGSRSGSDYSLTISSLESEDFVDYYCLQYASSPYTFGGGTKLEIK
With B4, the Kd in test [2] was determined as 25000 pM. Also, in test [1], the affinity, expressed as Kd, was 55.6 pM; the koff was 2.13e-05 s⁻¹; the kon was 384000 M⁻¹ s⁻¹. Also, in test [3], the Kd turned out to be 26.9 pM, the koff was 1.05e-05 s⁻¹ and the kon was 558000 M⁻¹ s⁻¹.

B5: mouse anti-Tie2 antibody 3B2 (antibody, V domains shown)
VH: QVQLQQPGAELVRPGASVKLSCKASGYSFTSYWMNWVKQRPGQGLEWIGMIHPSDSETRLNQKFKDKATLTVDKSSSTAYLQLSSPTSEDSAVYYCARGNYFDCWGQGTTLTVSS
VL: DIQMTQSPSSLSASLGERVSLTCRASQDIGISLNWLQQEPDGTIKRLIYATSILDSGVPKRFSGSRSGSDYSLTISSLESEDFVDYYCLQYASSPWTFGGGTKLEIK
In test [1], B5 registered a Kd of less than 1 pM, a koff of less than 1e-07 s⁻¹ and a kon of 444000 M⁻¹ s⁻¹.

B6: humanized anti-Tie2 antibody 3H7H11G4 (antibody, V domains shown)
VH: QVQLVQSGAEVKKPGASVKVSCKASGYTFTSYWMNWVRQAPGQGLEWMGMIHPSDSETRLNQKFMDRVTMTRDTSTSTVYMELSSLRSEDTAVYYCARGLYGNSWGQGTLVTVSS
VL: DIQMTQSPSSLSASVGDRVTITCRASQDIGISLNWYQQKPGKAPKRLIYATSSLDSGVPSRFSGSGSGTEFTLTISSLQPEDFATYYCLQYASSPYTFGQGTKVEIK
With B6, in test [3], the Kd is 7470 pM, the koff turned out to be 0.000467 s⁻¹ and the kon stood at 62600 M⁻¹ s⁻¹.

B7: humanized anti-Tie2 antibody 3H7H22G4 (antibody, V domains shown)
VH: QVQLVQSGAEVKKPGASVKVSCKASGYTFTSYWMNWVRQRPGQGLEWIGMIHPSDSETRLNQKFMDRVTMTRDTSTSTVYMELSSLRSEDTAVYYCARGLYGNSWGQGTLVTVSS
VL: DIQMTQSPSSLSASVGDRVTITCRASQDIGISLNWLQQEPGKAPKRLIYATSSLDSGVPKRFSGSGSGTEFTLTISSLQPEDFATYYCLQYASSPYTFGQGTKVEIK
For the molecule B7, in test [3], the Kd is 39700 pM, the koff turned out to be 0.000656 s⁻¹ and the kon was 16500 M⁻¹ s⁻¹.

B8: humanized anti-Tie2 antibody 3H7H12G4 (antibody, V domains shown)
VH: QVQLVQSGAEVKKPGASVKVSCKASGYTFTSYWMNWVRQAPGQGLEWMGMIHPSDSETRLNQKFMDRVTMTRDTSTSTVYMELSSLRSEDTAVYYCARGLYGNSWGQGTLVTVSS
VL: DIQMTQSPSSLSASVGDRVTITCRASQDIGISLNWLQQEPGKAPKRLIYATSSLDSGVPKRFSGSGSGTEFTLTISSLQPEDFATYYCLQYASSPYTFGQGTKVEIK
Consider B8, for which, in test [3], the Kd came to 96500 pM, the koff was 0.000999 s⁻¹ and the kon was found to be 10400 M⁻¹ s⁻¹.

B9: humanized anti-Tie2 antibody 3H7H21G4 (antibody, V domains shown)
VH: QVQLVQSGAEVKKPGASVKVSCKASGYTFTSYWMNWVRQRPGQGLEWIGMIHPSDSETRLNQKFMDRVTMTRDTSTSTVYMELSSLRSEDTAVYYCARGLYGNSWGQGTLVTVSS
VL: DIQMTQSPSSLSASVGDRVTITCRASQDIGISLNWYQQKPGKAPKRLIYATSSLDSGVPSRFSGSGSGTEFTLTISSLQPEDFATYYCLQYASSPYTFGQGTKVEIK
B9: in test [3], the Kd came to 6590 pM, the dissociation rate constant (koff) was 0.000517 s⁻¹ and the kon came to 78500 M⁻¹ s⁻¹.
